# Reference: patent publication US10472401B2, “Peptides and combination of peptides for use in immunotherapy against ovarian cancer and other cancers” (immatics biotechnologies GmbH, priority 2015, dated 2019)
# Target: HLA-A*02:01 (Homo sapiens, UniProt P04439, D140Y/D185E/D98H/E176V/E277Q/G131W/G231S/I119V/I121R/I166T/I218V/L300P/L318F/N151K/N90K/P208A/P217A/Q86G/Q94H/R138H/R169H/T345S)
# Assay: MHC binding assay (UV-ligand exchange, ELISA of stabilized MHC complexes)
# Conditions: MHC class I binding score; binding to HLA-A*02:01 ranged by peptide exchange yield (UV-ligand exchange, ELISA)
# Procedure, shortened: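 Peptide-MHC complexes made by UV-ligand exchange, cleaving a UV-sensitive placeholder peptide and replacing it with the test peptide. Exchange yield measured by ELISA: streptavidin-captured monomers (diluted 100-fold, 1 h, 37 °C) detected with HRP anti-β2m and TMB, absorbance at 450 nm.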
row,Substance,Peptide exchange
1,527 (FLLEPGNLEV; listed as Homo sapiens) [compound 527],″++++″ (≥75% = ++++)
2,131 (FVPPVTVFPSL; listed as Homo sapiens) [compound 131],″++″ (≥20% = ++)
3,248 (FLFPNQYVDV; listed as Homo sapiens) [compound 248],″+++″ (≥50% = +++)
4,355 (SIQQSIERLLV; listed as Homo sapiens) [compound 355],″++″ (≥20% = ++)
5,361 (ALYELEGTTV; listed as Homo sapiens) [compound 361],″+++″ (≥50% = +++)
6,466 (VLIANLEKL; listed as Homo sapiens) [compound 466],″++++″ (≥75% = ++++)
7,473 (AMATESILHFA; listed as Homo sapiens) [compound 473],″+++″ (≥50% = +++)
8,43 (VLSSLEINI; listed as Homo sapiens) [compound 43],″++″ (≥20% = ++)
9,189 (ALQRKLPYV; listed as Homo sapiens) [compound 189],″+++″ (≥50% = +++)
10,34 (ILVEADSLWVV; listed as Homo sapiens) [compound 34],″+++″ (≥50% = +++)
11,480 (ALLEDSCHYL; listed as Homo sapiens) [compound 480],″+++″ (≥50% = +++)
12,236 (GLLEAKVSL; listed as Homo sapiens) [compound 236],″+++″ (≥50% = +++)
13,604 (SILDRDDIFV; listed as Homo sapiens) [compound 604],″+++″ (≥50% = +++)
14,9 (GAAKDLPGV; listed as Homo sapiens) [compound 9],″++″ (≥20% = ++)
15,359 (YLLPESVDL; listed as Homo sapiens) [compound 359],″+++″ (≥50% = +++)
16,606 (ALWETEVYI; listed as Homo sapiens) [compound 606],″+++″ (≥50% = +++)
17,572 (ALADLIEKELSV; listed as Homo sapiens) [compound 572],″+++″ (≥50% = +++)
18,123 (NLWDLTDASVV; listed as Homo sapiens) [compound 123],″+++″ (≥50% = +++)
19,398 (KLLEEDGTIITL; listed as Homo sapiens) [compound 398],″++″ (≥20% = ++)
20,340 (ALLSMTFPL; listed as Homo sapiens) [compound 340],″++++″ (≥75% = ++++)
21,437 (SMAPGLVIQAV; listed as Homo sapiens) [compound 437],″+++″ (≥50% = +++)
22,512 (SLSEIVPCL; listed as Homo sapiens) [compound 512],″+++″ (≥50% = +++)
23,75 (GLLEVMVNL; listed as Homo sapiens) [compound 75],″+++″ (≥50% = +++)
24,130 (FLWNGEDSALL; listed as Homo sapiens) [compound 130],″+++″ (≥50% = +++)
25,109 (IILSILEQA; listed as Homo sapiens) [compound 109],″++++″ (≥75% = ++++)
26,635 (SLDSTLHAV; listed as Homo sapiens) [compound 635],″+++″ (≥50% = +++)

row,Substance,Peptide exchange
1,341 (SQIALNEKLVNL; listed as Homo sapiens) [compound 341],″+++″ (≥50% = +++)
2,553 (SLLNQDLHWSL; listed as Homo sapiens) [compound 553],″++++″ (≥75% = ++++)
3,428 (KLGHTDILVGV; listed as Homo sapiens) [compound 428],″++″ (≥20% = ++)
4,570 (ALANQIPTV; listed as Homo sapiens) [compound 570],″++″ (≥20% = ++)
5,607 (RLYSGISGLEL; listed as Homo sapiens) [compound 607],″+++″ (≥50% = +++)
6,29 (KMLGIPISNILMV; listed as Homo sapiens) [compound 29],″+++″ (≥50% = +++)
7,125 (VQIHQVAQV; listed as Homo sapiens) [compound 125],″+++″ (≥50% = +++)
8,133 (KVLSNIHTV; listed as Homo sapiens) [compound 133],″++″ (≥20% = ++)
9,568 (TLYDIAHTPGV; listed as Homo sapiens) [compound 568],″++++″ (≥75% = ++++)
10,315 (YLQDVVEQA; listed as Homo sapiens) [compound 315],″+++″ (≥50% = +++)
11,588 (SLLPLSHLV; listed as Homo sapiens) [compound 588],″+++″ (≥50% = +++)
12,544 (LLWDVPAPSL; listed as Homo sapiens) [compound 544],″+++″ (≥50% = +++)
13,262 (LLWGDLIWL; listed as Homo sapiens) [compound 262],″+++″ (≥50% = +++)
14,452 (ILLEHGADPNL; listed as Homo sapiens) [compound 452],″+++″ (≥50% = +++)
15,514 (ILVDWLVQV; listed as Homo sapiens) [compound 514],″+++″ (≥50% = +++)
16,204 (KIAENVEEV; listed as Homo sapiens) [compound 204],″++″ (≥20% = ++)
17,593 (GLPRFGIEMV; listed as Homo sapiens) [compound 593],″+++″ (≥50% = +++)
18,385 (SLLEQGLVEA; listed as Homo sapiens) [compound 385],″++″ (≥20% = ++)
19,200 (LLFGSVQEV; listed as Homo sapiens) [compound 200],″+++″ (≥50% = +++)
20,39 (SVAPNLPAV; listed as Homo sapiens) [compound 39],″+++″ (≥50% = +++)
21,325 (FIMPATVADATAV; listed as Homo sapiens) [compound 325],″+++″ (≥50% = +++)
22,234 (ALMEDTGRQML; listed as Homo sapiens) [compound 234],″++″ (≥20% = ++)
23,556 (FLTDLEDLTL; listed as Homo sapiens) [compound 556],″+++″ (≥50% = +++)
24,24 (SLSDGLEEV; listed as Homo sapiens) [compound 24],″++″ (≥20% = ++)
25,332 (YLISELEAA; listed as Homo sapiens) [compound 332],″+++″ (≥50% = +++)
26,162 (YQQAQVPSV; listed as Homo sapiens) [compound 162],″+++″ (≥50% = +++)

row,Substance,Peptide exchange
1,547 (TLDITPHTV; listed as Homo sapiens) [compound 547],″+++″ (≥50% = +++)
2,545 (LLADLLHNV; listed as Homo sapiens) [compound 545],″+++″ (≥50% = +++)
3,135 (ALSEVDFQL; listed as Homo sapiens) [compound 135],″+++″ (≥50% = +++)
4,366 (RLLDMGETDLML; listed as Homo sapiens) [compound 366],″+++″ (≥50% = +++)
5,263 (LLVSNLDFGV; listed as Homo sapiens) [compound 263],″+++″ (≥50% = +++)
6,31 (YLAPELFVNV; listed as Homo sapiens) [compound 31],″++″ (≥20% = ++)
7,67 (TLLAEALVTV; listed as Homo sapiens) [compound 67],″+++″ (≥50% = +++)
8,329 (FLVTLNNVEV; listed as Homo sapiens) [compound 329],″++++″ (≥75% = ++++)
9,25 (FLPDEPYIKV; listed as Homo sapiens) [compound 25],″+++″ (≥50% = +++)
10,490 (FLLQHVQEL; listed as Homo sapiens) [compound 490],″+++″ (≥50% = +++)
11,331 (KVDTVWVNV; listed as Homo sapiens) [compound 331],″+++″ (≥50% = +++)
12,258 (ELAERVPAI; listed as Homo sapiens) [compound 258],″++″ (≥20% = ++)
13,86 (NLIGKIENV; listed as Homo sapiens) [compound 86],″+++″ (≥50% = +++)
14,256 (FLPPEHTIVYI; listed as Homo sapiens) [compound 256],″+++″ (≥50% = +++)
15,615 (VLPPDTDPA; listed as Homo sapiens) [compound 615],″++″ (≥20% = ++)
16,599 (YLLNDASLISV; listed as Homo sapiens) [compound 599],″+++″ (≥50% = +++)
17,309 (GLFDGVPTTA; listed as Homo sapiens) [compound 309],″+++″ (≥50% = +++)
18,308 (SQYSGQLHEV; listed as Homo sapiens) [compound 308],″+++″ (≥50% = +++)
19,170 (RLQETLSAA; listed as Homo sapiens) [compound 170],″+++″ (≥50% = +++)
20,543 (GLLPTPITQQASL; listed as Homo sapiens) [compound 543],″+++″ (≥50% = +++)
21,120 (ALLGIPLTLV; listed as Homo sapiens) [compound 120],″+++″ (≥50% = +++)
22,279 (ALWGGTQPLL; listed as Homo sapiens) [compound 279],″++″ (≥20% = ++)
23,215 (QLINHLHAV; listed as Homo sapiens) [compound 215],″+++″ (≥50% = +++)
24,611 (YLLDDGTLVV; listed as Homo sapiens) [compound 611],″++++″ (≥75% = ++++)
25,173 (LLDSASAGLYL; listed as Homo sapiens) [compound 173],″+++″ (≥50% = +++)
